Data as given in paper doi:10.1101/2025.06.17.660082.

Target: Biotinylated SP16 (human) (UniProt P01009)
Experiment: SPR

Kd: 185 nM
Substance: Recombinant human insulin receptor/CD220 (28-944) protein, His Tag (from UniProt P06213-2 28-944)
